Assay results reported in the supplement of paper PMC10724198.
± gives the standard deviation of the averaged measurements.

Assays:
Saccharomyces cerevisiae [1] = test: protein stability index of tFT-peptide fusion (C-terminal peptide) (PSI (0-1 scale)); higher = more stable (slower turnover)
Experimental: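 MPS profiling in S. cerevisiae of the tFT-X12 degron library: putative degron peptides plus stable controls, 12 aa, fused to the C-terminus of a sfGFP-mCherry timer. Cells are FACS-sorted into 8 mCherry/sfGFP bins and deep-sequenced. PSI runs from 0 (unstable) to 1 (stable). Backgrounds are wild type, das1Δ and doa10Δ at 30 °C, and wild type, das1Δ, cdc34-1 and cdc53-1 at 37 °C; 2-3 technical replicates each.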

Saccharomyces cerevisiae [2] = test: as above; details: genetic background: wild type; temperature: 30 C
[3] = genetic background: cdc34-1, temperature: 37 C
[4] = genetic background: cdc53-1, temperature: 37 C
[5] = genetic background: das1 deletion, temperature: 30 C
[6] = genetic background: das1 deletion, temperature: 37 C
[7] = genetic background: doa10 deletion, temperature: 30 C
[8] = genetic background: wild type, temperature: 30 C
[9] = genetic background: wild type, temperature: 37 C
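Note: PSI is a weighted mean of sequencing reads over stability bins, variants kept only with over 10 reads, mCherry proximal and sfGFP distal, peptide attached via GGGS linker.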

Sequence | protein stability index (Saccharomyces cerevisiae [1]; [3]) | protein stability index (Saccharomyces cerevisiae [1]; [4]) | protein stability index (Saccharomyces cerevisiae [1]; [5]) | protein stability index (Saccharomyces cerevisiae [1]; [6]) | protein stability index (Saccharomyces cerevisiae [1]; [7]) | protein stability index (Saccharomyces cerevisiae [1]; [8]) | protein stability index (Saccharomyces cerevisiae [1]; [9]) | protein stability index (Saccharomyces cerevisiae [2])
FGLRVHPIVFIF | 0.289 ± 0.032 | 0.269 ± 0.0053 | 0.374 ± 0.016 | 0.488 ± 0.018 | 0.0775 ± 0.022 | 0.0769 ± 0.016 | 0.0909 ± 0.047 | 0.128 ± 0.034
FGLVAYPLWYIS | 0.504 ± 0.04 | 0.765 ± 0.0058 | 0.668 ± 0.014 | 0.777 ± 0.0099 | 0.0782 ± 0.031 | 0.0991 ± 0.0037 | 0.105 ± 0.029 | 0.18 ± 0.013
FGSFVVWGVWWG | 0.458 ± 0.0071 | 0.4975 ± 0.0029 | 0.352 ± 0.036 | 0.563 ± 0.038 | 0.352 ± 0.015 | 0.356 ± 0.032 | 0.5069 ± 0.0015 | 0.508 ± 0.018
FGVLGCAWVWVG | 0.394 ± 0.0091 | 0.528 ± 0.032 | 0.465 ± 0.033 | 0.625 ± 0.017 | 0.0888 ± 0.019 | 0.114 ± 0.021 | 0.103 ± 0.037 | 0.157 ± 0.045
FICLLFSCVYLG | 0.51 ± 0.025 | 0.535 ± 0.013 | 0.464 ± 0.026 | 0.593 ± 0.039 | 0.3776 ± 0.0014 | 0.382 ± 0.026 | 0.5293 ± 0.005 | 0.41 ± 0.072
FIGVLVFSWLLF | 0.244 ± 0.029 | 0.371 ± 0.0074 | 0.241 ± 0.035 | 0.412 ± 0.021 | 0.215 ± 0.0034 | 0.235 ± 0.024 | 0.381 ± 0.021 | 0.37 ± 0.03
FKVTWGLFYGSV | 0.551 ± 0.098 | 0.653 ± 0.048 | 0.505 ± 0.034 | 0.581 ± 0.013 | 0.535 ± 0.059 | 0.548 ± 0.026 | 0.595 ± 0.011 | 0.44 ± 0.061
FLCVLYFFLCVE | 0.218 ± 0.00042 | 0.3209 ± 0.0031 | 0.253 ± 0.03 | 0.404 ± 0.055 | 0.195 ± 0.01 | 0.224 ± 0.015 | 0.334 ± 0.022 | 0.417 ± 0.18
FLQIIIFSRVLF | 0.455 ± 0.013 | 0.543 ± 0.059 | 0.377 ± 0.017 | 0.549 ± 0.0081 | 0.366 ± 0.026 | 0.364 ± 0.031 | 0.52 ± 0.011 | 0.467 ± 0.024
FLRWRVWVVVGW | 0.187 ± 0.023 | 0.259 ± 0.024 | 0.199 ± 0.035 | 0.358 ± 0.027 | 0.18 ± 0.012 | 0.181 ± 0.021 | 0.332 ± 0.039 | 0.234 ± 0.0043
FLSRLVGFYFVV | 0.606 ± 0.018 | 0.69 ± 0.0093 | 0.587 ± 0.026 | 0.733 ± 0.022 | 0.313 ± 0.006 | 0.312 ± 0.014 | 0.463 ± 0.014 | 0.361 ± 0.021
FLSVPHLLFLFI | 0.608 ± 0.0063 | 0.634 ± 0.016 | 0.494 ± 0.021 | 0.619 ± 0.0054 | 0.49 ± 0.016 | 0.4689 ± 0.0032 | 0.6023 ± 0.0038 | 0.511 ± 0.017
FLTLQSPIQYIV | 0.584 ± 0.032 | 0.732 ± 0.013 | 0.646 ± 0.053 | 0.7289 ± 0.0016 | 0.105 ± 0.0049 | 0.117 ± 0.017 | 0.124 ± 0.0086 | 0.171 ± 0.015
FLTSPSVWRYLF | 0.623 ± 0.026 | 0.7196 ± 0.0049 | 0.693 ± 0.032 | 0.755 ± 0.0045 | 0.125 ± 0.046 | 0.139 ± 0.017 | 0.227 ± 0.017 | 0.153 ± 0.036
FLYIPLYCRLSF | 0.286 ± 0.034 | 0.3 ± 0.006 | 0.302 ± 0.031 | 0.433 ± 0.019 | 0.209 ± 0.018 | 0.147 ± 0.028 | 0.343 ± 0.011 | 0.256 ± 0.027
FPTLHPAIPYLC | 0.643 ± 0.013 | 0.672 ± 0.057 | 0.616 ± 0.017 | 0.7116 ± 0.0013 | 0.237 ± 0.01 | 0.282 ± 0.022 | 0.468 ± 0.02 | 0.458 ± 0.042
FRFGAKISLIVL | 0.569 ± 0.019 | 0.565 ± 0.014 | 0.47 ± 0.018 | 0.584 ± 0.015 | 0.189 ± 0.0063 | 0.225 ± 0.033 | 0.42 ± 0.034 | 0.368 ± 0.064
FRHFPLLLSFVR | 0.428 ± 0.025 | 0.4636 ± 0.0011 | 0.334 ± 0.033 | 0.512 ± 0.01 | 0.324 ± 0.015 | 0.323 ± 0.04 | 0.5 ± 0.0094 | 0.418 ± 0.062
FRILVGCRVVLM | 0.429 ± 0.0069 | 0.51 ± 0.077 | 0.355 ± 0.028 | 0.5047 ± 0.00065 | 0.311 ± 0.0097 | 0.343 ± 0.051 | 0.483 ± 0.016 | 0.426 ± 0.021
FSAVVCPTVFLC | 0.51 ± 0.051 | 0.725 ± 0.019 | 0.603 ± 0.015 | 0.746 ± 0.019 | 0.0928 ± 0.02 | 0.0973 ± 0.022 | 0.0951 ± 0.0051 | 0.185 ± 0.063
FSCWLFMLCVFL | 0.4339 ± 0.0012 | 0.459 ± 0.015 | 0.401 ± 0.013 | 0.466 ± 0.026 | 0.37 ± 0.017 | 0.316 ± 0.023 | 0.454 ± 0.025 | 0.393 ± 0.025
FSIFFFLLPSSL | 0.539 ± 0.03 | 0.559 ± 0.0082 | 0.448 ± 0.017 | 0.604 ± 0.0097 | 0.443 ± 0.028 | 0.441 ± 0.025 | 0.5593 ± 0.0021 | 0.464 ± 0.042
FSLFYYIHLSVA | 0.191 ± 0.002 | 0.211 ± 0.02 | 0.169 ± 0.034 | 0.2771 ± 0.002 | 0.0982 ± 0.0035 | 0.104 ± 0.028 | 0.197 ± 0.0021 | 0.192 ± 0.019
FSLGGVPYVFFV | 0.628 ± 0.05 | 0.694 ± 0.012 | 0.587 ± 0.024 | 0.716 ± 0.01 | 0.195 ± 0.022 | 0.221 ± 0.029 | 0.4579 ± 0.0017 | 0.37 ± 0.019
FSLWSRRSITVY | 0.04947 ± 0.00046 | 0.0405 ± 0.018 | 0.104 ± 0.042 | 0.113 ± 0.019 | 0.0595 ± 0.02 | 0.0899 ± 0.026 | 0.0886 ± 0.049 | 0.198 ± 0.057
FSPSHMLRIFCY | 0.337 ± 0.089 | 0.355 ± 0.067 | 0.286 ± 0.033 | 0.443 ± 0.0051 | 0.1793 ± 0.00023 | 0.212 ± 0.0047 | 0.282 ± 0.0028 | 0.294 ± 0.055
FSRPTYYFIRHS | 0.629 ± 0.048 | 0.696 ± 0.03 | 0.658 ± 0.038 | 0.69 ± 0.011 | 0.26 ± 0.021 | 0.272 ± 0.058 | 0.475 ± 0.048 | 0.403 ± 0.029
FSSRVFLIVGIY | 0.45 ± 0.015 | 0.614 ± 0.05 | 0.33 ± 0.029 | 0.538 ± 0.021 | 0.2266 ± 0.0017 | 0.27 ± 0.023 | 0.4874 ± 0.0027 | 0.427 ± 0.025
FVCFSFFFPFLL | 0.401 ± 0.0099 | 0.441 ± 0.0071 | 0.37 ± 0.033 | 0.5099 ± 0.001 | 0.163 ± 0.01 | 0.148 ± 0.016 | 0.238 ± 0.0042 | 0.237 ± 0.057
FVFCTCSFFFLW | 0.5113 ± 0.0046 | 0.532 ± 0.011 | 0.421 ± 0.026 | 0.54 ± 0.021 | 0.374 ± 0.004 | 0.393 ± 0.029 | 0.5103 ± 0.00052 | 0.477 ± 0.0076
